Measured values published in IntAct's records for PubMed 40088780.

Target: tor1a_human TOR1A (UniProt O14656)

## Torsin-1A-interacting protein 2 (Homo sapiens), Q8NFQ8 R412G
  effect of a mutation on the interaction: decreasing interaction strength
